In US20230106715A1 (BIOSION, published 2023):
Where a chain is given by its changes, count along the chain named. One block for each binder: values may come before it.

Tests used:
[1] = biological target: T1, human Siglec15-Fc protein (human); assay: competitive ELISA: coated human Siglec15-Fc, blocked ligand biotin-labeled human LRRC4C-Fc
T1 construct: In house made; also called recombinant human Siglec15 protein with human IgG1 Fc at the C-terminus
Procedure: Serially diluted anti-Siglec15 antibodies or the controls (starting at 66.67 nM with a 5-fold serial dilution) in PBST with 2.5% w/v non-fatty milk were added to the Siglec15-Fc bound plates, 100 μl per well, and incubated with the human Siglec15-Fc protein at 37° C. for 40 minutes. Plates were washed 4 times again using wash buffer, then added and incubated for 40 minutes at 37° C. with 100 μl/well 290 ng/ml biotin-labeled human LRRC4C-Fc protein (prepared in-house with SEQ ID NO: 23). Plates were washed again using wash buffer. Thereafter, the plates were added with 100 μl/well streptavidin conjugated HRP (1:5000 dilution in PBST buffer, Jackson Immunoresearch, Cat #016-030-084) and incubated for 40 minutes at 37° C. Plates were washed again using wash buffer. Finally, TMB was added and the reaction was stopped using 1M H₂SO₄, and the absorbance of each well was read on a microplate reader using dual wavelength mode with 450 nm for TMB and 630 nm as the reference wavelength, then the OD (450-630) values were plotted against antibody concentration. Data was analyzed using Graphpad Prism software and IC₅₀ values were reported.

[2] = biological target: T2, recombinant human Siglec15-his protein (human, UniProt Q6ZMC9 20-263); assay: SPR Biacore T200, antibody captured by anti-mouse IgG, antigen as analyte, 1:1 fit
T2 construct: In house made; Biotin-labeled in the capture ELISA
T2 sequence: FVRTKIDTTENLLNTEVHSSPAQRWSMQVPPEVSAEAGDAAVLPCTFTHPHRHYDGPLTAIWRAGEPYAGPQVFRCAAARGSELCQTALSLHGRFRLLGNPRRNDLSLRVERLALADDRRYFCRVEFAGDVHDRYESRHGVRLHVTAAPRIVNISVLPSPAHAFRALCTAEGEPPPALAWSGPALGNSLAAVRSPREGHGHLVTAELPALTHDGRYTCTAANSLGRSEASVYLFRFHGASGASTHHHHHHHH
Procedure: (§1) Briefly, goat anti-mouse IgG (GE healthcare, Cat #BR100838, Mouse Antibody Capture Kit) was covalently linked to a CM5 chip (carboxy methyl dextran coated chip from GE healthcare, Cat #BR100530) via primary amines using a standard amine coupling kit (GE healthcare, Pittsburgh, Pa., USA) provided by Biacore. Un-reacted moieties on the biosensor surface were blocked with ethanolamine. The purified mouse anti-Siglec15 antibodies of the disclosure at the concentration of 13.3 nM, were respectively flowed onto the chip at a flow rate of 10 μL/min. Then, serially diluted human Siglec15-his protein (in house made, amino acid sequence set forth in SEQ ID NO: 20), cynomolgus monkey Siglec15-his protein (in house made, amino acid sequence set forth in SEQ ID NO: 21), or mouse Siglec15-his protein (in house made, amino acid sequence set forth in SEQ ID NO: 22), 2-fold dilution in HBS-EP⁺ buffer (provided by Biacore) starting at 80 nM, were flowed onto the chip at a flow rate of 30 μL/min. The antigen-antibody association kinetics was followed for 2 minutes and the dissociation kinetics was followed for 10 minutes. The association and dissociation curves were fit to a 1:1 Langmuir binding model using BIAcore evaluation software.

[3] = biological target: T3, cynomolgus monkey Siglec15-his protein (cynomolgus monkey); assay: as above
T3 construct: In house made; also called Cynomolgus Siglec15-his; cynomolgus Siglec15
T3 chain: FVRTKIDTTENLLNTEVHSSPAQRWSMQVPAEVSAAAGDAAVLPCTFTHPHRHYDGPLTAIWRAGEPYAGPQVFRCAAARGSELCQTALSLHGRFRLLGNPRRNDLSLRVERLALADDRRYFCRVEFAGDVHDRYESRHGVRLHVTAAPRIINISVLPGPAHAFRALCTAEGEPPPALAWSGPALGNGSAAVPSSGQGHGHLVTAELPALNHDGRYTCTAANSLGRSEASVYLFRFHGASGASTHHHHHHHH
Procedure: as §1

[4] = biological target: T4, mouse Siglec15-his protein (mouse); assay: as above
T4 construct: In house made
T4 chain: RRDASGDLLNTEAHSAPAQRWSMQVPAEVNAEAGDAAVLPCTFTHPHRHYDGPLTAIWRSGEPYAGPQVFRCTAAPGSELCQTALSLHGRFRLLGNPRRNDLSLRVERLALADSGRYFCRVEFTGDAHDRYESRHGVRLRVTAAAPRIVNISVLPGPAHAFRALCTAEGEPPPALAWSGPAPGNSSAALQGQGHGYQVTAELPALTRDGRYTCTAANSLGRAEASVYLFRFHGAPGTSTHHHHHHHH
Procedure: as §1

IC50 [1]: 0.751 nM
B1: anti-Siglec15 benchmark (ch5G12) (antibody, human IgG1, kappa, V domains shown)
VH: QVQLQQPGAELVKPGASVKMSCKASGYTFTSYWITWVIQRPGQGLEWIGDIYCGSDTMHYNEKFKNKATLTVDTSSSTAYMQLSSLTSEDSAVYYCARWWDYGSSYDYFDYWGQGTTLTVSS
VL: DIKMTQSPSSMYASLGERVTITCKASQDINSYLSWFQQKPGKSPKTLIYRANRLVDGVPSRFSGSGSGQDYSLTISSLEYEDMGIYYCLQYDEFPYTFGGGTKLEIKR
notes: ch5G12 (US 20190202912A1); also called BM; Siglec15-ch5G9

Kd [2]: 0.0352 nM
koff [2]: 5.46e-05 s⁻¹
kon [2]: 1.55e+06 M⁻¹ s⁻¹
Kd [3]: 0.476 nM
koff [3]: 0.000338 s⁻¹
kon [3]: 711000 M⁻¹ s⁻¹
Kd [4]: 0.337 nM
koff [4]: 0.00445 s⁻¹
kon [4]: 1.32e+07 M⁻¹ s⁻¹
B2: B2D7H7A3C1 (antibody, V domains shown)
VH: QVQLQQSGAELVRPGTSVQMSCKAAGYTFTNYWIGWVKQRPGHGLEWVGDIHPGINYTNNNEKFRGKATLTADTSSNTAYMQLRGLTSDDSAIYYCARVDYDYDGSYIMDYWGQGTSVTVSS
VL: QIVLSQSPALLSASPGEKVTMTCRASSSVSYMYWYQQKPGSSPKPWIYATSNLTSGVPARFSGSGSGTSYSLTISRVEAEDAATYFCQQWNSKPWTFGGGSKLEIR
notes: Mouse monoclonal antibody from hybridoma; also called mouse B2D7H7A3C1

Kd [2]: 0.016 nM
koff [2]: 3.18e-05 s⁻¹
kon [2]: 1.99e+06 M⁻¹ s⁻¹
Kd [3]: 0.405 nM
koff [3]: 0.000352 s⁻¹
kon [3]: 869000 M⁻¹ s⁻¹
Kd [4]: 0.39 nM
koff [4]: 0.00737 s⁻¹
kon [4]: 1.89e+07 M⁻¹ s⁻¹
B3: B2H2H1H7 (antibody, V domains shown)
VH: B2 VH with N77S
VL: B2 VL with V3I, K102R
notes: Mouse monoclonal antibody from hybridoma; also called mouse B2H2H1H7; B2H2H1A7

Kd [2]: 0.00858 nM
koff [2]: 1.76e-05 s⁻¹
kon [2]: 2.05e+06 M⁻¹ s⁻¹
Kd [3]: 0.372 nM
koff [3]: 0.000371 s⁻¹
kon [3]: 996000 M⁻¹ s⁻¹
Kd [4]: 0.423 nM
koff [4]: 0.0108 s⁻¹
kon [4]: 2.55e+07 M⁻¹ s⁻¹
B4: B2G12H3E8 (antibody, V domains shown)
VH: B2 VH with Q5K, A25V, N77S
VL: B2 VL
notes: Mouse monoclonal antibody from hybridoma; also called mouse B2G12H3E8

IC50 [1]: 0.84 nM
B5: A2A5C7E8 (antibody, V domains shown)
VH: EVQLVQSGAEVKKPGESLRISCKGSGYSFTTYWISWVRQMPGKGLEWMGLIDPSDSYTNYSPSFQGHVTISTDKSISTAYLQWSSLKASDTAMYYCARGGYYGSEEDYWGQGTLVTVSS
VL: EIVLTQSPGTLSLSPGERATLSCRASQSVSSSRLAWFQQKSGQAPRLLIFDASSRATGIPDRFSGSGSGTDFTLTISRLEPEDFAVYYCQQYGSSPRTFGQGTKVEFK
notes: Fully human antibody from transgenic mouse hybridoma; also called A2A5C7E8-1

IC50 [1]: 1.24 nM
B6: A1E10G7H9 (antibody, V domains shown)
VH: QVQLQESGPGLVKPSGTLSLTCAVSGGSISSSNWWHWVRQPPGKGLEWIGEIYHSGNTNYKPSLKSRVTISVDKSKNQFSLKLSSVTAADTAVYYCARDEGNGWSNAFDIWGQGTMVTVSS
VL: ENVLTQSPGTLSLSPGERVTLSCRASQSVSSSYLAWYQQKPGQAPRFLIYGASGGATGIPDRFSGSGSGTDFTLTISRLEPEDFAVYYCQQYGSSPITFGQGTRLEIK
notes: Fully human antibody from transgenic mouse hybridoma
